Kd data for four substances are collected here from PMC12607895.

pKd: −log10 of the molar value.

The target of one test is CD46 (human) (UniProt P15529). As to the kind of experiment: SPR; Biacore T200; CD46 or CAR amine-coupled to a CM5 chip (2,390-2,640 RU CD46, 2,380-2,870 RU CAR); whole virions as analyte, twofold series 50-12.5 µg/mL, 120 s at 30 µL/min; 25°C, HBS-EP+ (10 mM HEPES, 150 mM NaCl, 3 mM EDTA, 0.005% P20, pH 7.4); performed once.
For test [1], the target named is coxsackievirus and adenovirus receptor (CAR) (UniProt P78310). The description is as above.
Chain of coxsackievirus and adenovirus receptor (CAR) (P78310 20-365): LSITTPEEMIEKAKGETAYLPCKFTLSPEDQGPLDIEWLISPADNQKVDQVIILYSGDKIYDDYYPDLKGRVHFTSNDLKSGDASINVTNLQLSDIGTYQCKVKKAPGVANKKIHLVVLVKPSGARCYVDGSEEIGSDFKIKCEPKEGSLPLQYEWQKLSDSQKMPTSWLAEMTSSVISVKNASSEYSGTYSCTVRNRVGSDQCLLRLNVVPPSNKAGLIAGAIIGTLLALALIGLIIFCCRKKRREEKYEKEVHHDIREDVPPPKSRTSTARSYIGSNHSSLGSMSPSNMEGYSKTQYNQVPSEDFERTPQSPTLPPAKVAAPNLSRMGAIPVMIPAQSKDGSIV

Chain of CD46 (human) (P15529 35-392): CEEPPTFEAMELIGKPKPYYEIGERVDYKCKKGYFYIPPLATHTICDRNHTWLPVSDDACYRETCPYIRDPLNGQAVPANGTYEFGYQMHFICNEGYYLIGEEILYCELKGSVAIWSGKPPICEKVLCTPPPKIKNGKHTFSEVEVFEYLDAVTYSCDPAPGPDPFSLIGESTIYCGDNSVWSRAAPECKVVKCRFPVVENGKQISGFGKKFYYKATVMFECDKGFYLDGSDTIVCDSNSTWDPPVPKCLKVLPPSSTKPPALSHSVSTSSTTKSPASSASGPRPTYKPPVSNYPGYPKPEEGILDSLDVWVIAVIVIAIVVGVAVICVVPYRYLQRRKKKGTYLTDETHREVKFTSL

In turn, HAdV-B11 virion (complex) gave a negative-log Kd (pKd) with CD46 (human) of 11.32. Still for that read-out and setting: as for HAdV-D37 virion (complex), the figure is 10.00; as for HAdV-D39 virion (complex), 10.00. In test [1], HAdV-D26 virion (complex) gave a negative logarithm of the Kd (pKd) of 10.12.
